Numbering of substitutions follows the chain as printed.
B1: 1.31.31-1 (antibody, human IgG1, kappa)
heavy: QVQLVQSGAEVTKPGASVRVSCEASGYNIRDYFIHWWRQAPGQGLQWVGWINPKTGQPNNPRQFQGRVSLTRHASWDFDTFSFYMDLKALRSDDTATYFCARQRSDYWDFDVWGSGTQVTVSSASTKGPSVFPLAPSSKSTSGGTAALGCLVKDYFPEPVTVSWNSGALTSGVHTFPAVLQSSGLYSLSSVVTVPSSSLGTQTYICNVNHKPSNTKVDKKVEPKSCDKTHTCPPCPAPELLAGPDVFLFPPKPKDTLMISRTPEVTCVVVDVSHEDPEVKFNWYVDGVEVHNAKTKPREEQYNSTYRVVSVLTVLHQDWLNGKEYKCKVSNKALPLPEEKTISKAKGQPREPQVYTLPPSREEMTKNQVSLTCLVKGFYPSDIAVEWESNGQPENNYKTTPPVLDSDGSFFLYSKLTVDKSRWQQGNVFSCSVLHEALHSHYTQKSLSLSPGK
light: DIQMTQSPSSLSASVGDTVTITCQANGYLNWYQQRRGKAPKLLIYDGSKLERGVPSRFSGRRWGQEYTLTISSLQPEDIATYFCQVYEFVVPGTNLDLKRTVAAPSVFIFPPSDEQLKSGTASVVCLLNNFYPREAKVQWKVDNALQSGNSQESVTEQDSKDSTYSLSSTLTLSKADYEKHKVYACEVTHQGLSSPVTKSFNRGEC
B2: 1.22.1-1 (antibody, human IgG1, kappa)
heavy: QVQLLQSGAAVTKPGASVRVSCEASGYNIRDYFIHWWRQAPGQGLQWVGWINPKTGQPNNPRQFQGRVSLTRHASTFSFYMDLKALRSDDTAVYFCARQRSDYWDFDVWGSGTQVTVSSASTKGPSVFPLAPSSKSTSGGTAALGCLVKDYFPEPVTVSWNSGALTSGVHTFPAVLQSSGLYSLSSVVTVPSSSLGTQTYICNVNHKPSNTKVDKKVEPKSCDKTHTCPPCPAPELLAGPDVFLFPPKPKDTLMISRTPEVTCVVVDVSHEDPEVKFNWYVDGVEVHNAKTKPREEQYNSTYRVVSVLTVLHQDWLNGKEYKCKVSNKALPLPEEKTISKAKGQPREPQVYTLPPSREEMTKNQVSLTCLVKGFYPSDIAVEWESNGQPENNYKTTPPVLDSDGSFFLYSKLTVDKSRWQQGNVFSCSVLHEALHSHYTQKSLSLSPGK
light: B1 light with T68N, S72N, S73N, N95R
B3: 1.2.2-1 (antibody, human IgG1)
heavy: B1 heavy with V5L, T12K, T97V, Q118M
VL: DIQMTQSPSSLSASVGDTVTITCQANGYLNWYQQKPGKAPKLLIYDGSKLERGVPSRFSGRRWGQEYNLTINNLQPEDIATYFCQVYEFVVPGTKVDIK
B4: 1.31.34-1 (antibody, human IgG1, kappa)
heavy: B1 heavy
light: B1 light with K49N, V91T, N95R, L98I
B5: 1.31.32-1 (antibody, human IgG1, kappa)
heavy: B1 heavy
light: B1 light with V91T, N95R
B6: 1.34.34-1 (antibody, human IgG1, kappa)
heavy: B1 heavy with T12K, E23K, S69T, T97V, S105T
light: B1 light with K49N, V91T, N95R, L98I
B7: 1.34.1-1 (antibody, human IgG1, kappa)
heavy: B1 heavy with T12K, E23K, S69T, T97V, S105T
light: B1 light with T68N, S72N, S73N, N95R
B8: 1.34.31-1 (antibody, human IgG1, kappa)
heavy: B1 heavy with T12K, E23K, S69T, T97V, S105T
light: B1 light
B9: 1.32.1-1 (antibody, human IgG1, kappa)
heavy: B1 heavy with T97V, S105T
light: B1 light with T68N, S72N, S73N, N95R
B10: 1.33.31-1 (antibody, human IgG1, kappa)
heavy: B1 heavy with T12K, E23K, S69T
light: B1 light
B11: 1.1.2-1 (antibody, human IgG1)
heavy: B1 heavy with V5L, E10A, T97V
VL: B3 VL
B12: 1.33.33-1 (antibody, human IgG1, kappa)
heavy: B1 heavy with T12K, E23K, S69T
light: B1 light with K49N, L98I
B13: 1.33.32-1 (antibody, human IgG1, kappa)
heavy: B1 heavy with T12K, E23K, S69T
light: B1 light with V91T, N95R
B14: 1.34.32-1 (antibody, human IgG1, kappa)
heavy: B1 heavy with T12K, E23K, S69T, T97V, S105T
light: B1 light with V91T, N95R
B15: 1.32.31-1 (antibody, human IgG1, kappa)
heavy: B1 heavy with T97V, S105T
light: B1 light
B16: 1.31.33-1 (antibody, human IgG1, kappa)
heavy: B1 heavy
light: B1 light with K49N, L98I
B17: 1.32.33-1 (antibody, human IgG1, kappa)
heavy: B1 heavy with T97V, S105T
light: B1 light with K49N, L98I
B18: 1.34.33-1 (antibody, human IgG1, kappa)
heavy: B1 heavy with T12K, E23K, S69T, T97V, S105T
light: B1 light with K49N, L98I
B19: 1.33.1-1 (antibody, human IgG1, kappa)
heavy: B1 heavy with T12K, E23K, S69T
light: B1 light with T68N, S72N, S73N, N95R
B20: 1.32.32-1 (antibody, human IgG1, kappa)
heavy: B1 heavy with T97V, S105T
light: B1 light with V91T, N95R
B21: 1.33.34-1 (antibody, human IgG1, kappa)
heavy: B1 heavy with T12K, E23K, S69T
light: B1 light with K49N, V91T, N95R, L98I
B22: 1.32.34-1 (antibody, human IgG1, kappa)
heavy: B1 heavy with T97V, S105T
light: B1 light with K49N, V91T, N95R, L98I
B23: 1v2-1 (antibody, human IgG1, kappa)
heavy: B1 heavy with V5L, E10A, F81Y, T97V
light: B1 light with T68N, S72N, S73N, N95R

These binders were tested against BSA (UniProt P02769 25-607) (assay: single-point ELISA, BSA control).

Binder | ELISA A450
B1 | 0.07 A450
B2 | 0.06 A450
B3 | 0.06 A450
B4 | 0.06 A450
B5 | 0.06 A450
B6 | 0.06 A450
B7 | 0.07 A450
B8 | 0.06 A450
B9 | 0.06 A450
B10 | 0.07 A450
B11 | 0.06 A450
B12 | 0.07 A450
B13 | 0.07 A450
B14 | 0.06 A450
B15 | 0.07 A450
B16 | 0.06 A450
B17 | 0.06 A450
B18 | 0.06 A450
B19 | 0.06 A450
B20 | 0.08 A450
B21 | 0.06 A450
B22 | 0.06 A450
B23 | 0.08 A450

Each binder was assayed against gp120 CAAN (HIV (CAAN)) (assay: single-point ELISA at EC50 conc. of A-1).

Binder | ELISA A450
B1 | 1.02 A450
B2 | 0.87 A450
B3 | 0.8 A450
B4 | 0.86 A450
B5 | 1.04 A450
B6 | 0.88 A450
B7 | 0.9 A450
B8 | 0.92 A450
B9 | 0.83 A450
B10 | 1.18 A450
B11 | 0.93 A450
B12 | 1.06 A450
B13 | 1.13 A450
B14 | 0.97 A450
B15 | 0.9 A450
B16 | 0.86 A450
B17 | 0.68 A450
B18 | 1.04 A450
B19 | 0.98 A450
B20 | 0.9 A450
B21 | 0.95 A450
B22 | 0.86 A450
B23 | 1 A450

Each binder was assayed against gp120 Bal (HIV (Bal)) (assay: single-point ELISA at EC50 conc. of A-1).

Binder | ELISA A450
B1 | 0.98 A450
B2 | 1.03 A450
B3 | 0.91 A450
B4 | 0.76 A450
B5 | 0.98 A450
B6 | 0.89 A450
B7 | 0.83 A450
B8 | 0.91 A450
B9 | 0.93 A450
B10 | 0.92 A450
B11 | 0.95 A450
B12 | 1.09 A450
B13 | 0.98 A450
B14 | 0.93 A450
B15 | 0.95 A450
B16 | 0.89 A450
B17 | 0.93 A450
B18 | 1.1 A450
B19 | 0.88 A450
B20 | 0.89 A450
B21 | 0.95 A450
B22 | 0.81 A450
B23 | 1.03 A450

Each binder was assayed against gp120 SHIV SF162 P3 (SHIV SF162 P3) (assay: single-point ELISA at EC50 conc. of A-1).

Binder | ELISA A450
B1 | 0.97 A450
B2 | 0.78 A450
B3 | 0.97 A450
B4 | 0.82 A450
B5 | 0.91 A450
B6 | 0.7 A450
B7 | 0.79 A450
B8 | 0.77 A450
B9 | 0.91 A450
B10 | 0.89 A450
B11 | 1.01 A450
B12 | 0.97 A450
B13 | 0.98 A450
B14 | 0.69 A450
B15 | 0.66 A450
B16 | 0.74 A450
B17 | 0.71 A450
B18 | 0.82 A450
B19 | 0.96 A450
B20 | 0.7 A450
B21 | 0.82 A450
B22 | 0.71 A450
B23 | 1.29 A450

— patent US20240034774A1 (Gilead, published 2024)
